In patent publication US20250361268A1, “NOVEL ANTI-INFLAMMATORY PEPTIDE AND USE THEREOF” (NOVACELL TECHNOLOGY INC., priority 2022, published 2025):
Peptide text beside a SMILES is read from it.

T1: FPR1 (Homo sapiens, UniProt P21462)
T1 sequence (P21462 1-350): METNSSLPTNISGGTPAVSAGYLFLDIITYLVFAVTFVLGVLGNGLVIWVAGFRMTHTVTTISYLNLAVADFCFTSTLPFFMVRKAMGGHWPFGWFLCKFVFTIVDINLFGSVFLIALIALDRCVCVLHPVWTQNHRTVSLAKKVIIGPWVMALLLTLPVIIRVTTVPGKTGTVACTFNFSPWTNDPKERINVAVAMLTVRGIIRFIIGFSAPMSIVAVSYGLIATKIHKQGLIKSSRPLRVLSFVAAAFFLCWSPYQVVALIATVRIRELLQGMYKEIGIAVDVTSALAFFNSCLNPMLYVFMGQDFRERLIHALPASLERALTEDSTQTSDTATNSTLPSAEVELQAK

T2: FPR2 (Homo sapiens, UniProt P25090)
T2 construct: expressed in transfected cells; host or cells: RBL cells (RBL-FPR2)
T2 sequence (P25090 1-351): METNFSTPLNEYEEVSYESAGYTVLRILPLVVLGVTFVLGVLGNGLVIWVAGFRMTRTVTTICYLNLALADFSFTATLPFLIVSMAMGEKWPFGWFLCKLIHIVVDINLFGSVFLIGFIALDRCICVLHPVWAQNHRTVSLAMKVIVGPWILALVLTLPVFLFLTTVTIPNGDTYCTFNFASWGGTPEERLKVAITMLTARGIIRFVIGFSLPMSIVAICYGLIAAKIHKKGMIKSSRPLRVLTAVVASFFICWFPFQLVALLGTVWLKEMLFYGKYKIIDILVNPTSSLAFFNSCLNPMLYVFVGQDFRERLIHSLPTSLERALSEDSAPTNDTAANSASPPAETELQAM

T3: FPR1 (UniProt P21462 1-350, limits assumed)
T3 sequence (looked up): T1 sequence (P21462 1-350)

T4: formyl peptide receptor 2 (FPR2) (UniProt P25090 1-351, limits assumed)
T4 sequence (looked up): T2 sequence (P25090 1-351)

B1: peptide of SEQ ID NO 27 (peptide)
peptide: PMKYKVM
HELM: PEPTIDE1{[CCCC(=O)[*:2]].P.M.K.Y.K.V.[dM].[am]}$$$$V2.0
SMILES: CCCC(=O)N1CCC[C@H]1C(=O)N[C@@H](CCSC)C(=O)N[C@@H](CCCCN)C(=O)N[C@@H](Cc1ccc(O)cc1)C(=O)N[C@@H](CCCCN)C(=O)N[C@H](C(=O)N[C@H](CCSC)C(N)=O)C(C)C
B2: peptide of SEQ ID NO 28 (peptide)
peptide: PMKYKVM
HELM: PEPTIDE1{[CCCCCCCC(=O)[*:2]].P.M.K.Y.K.V.[dM].[am]}$$$$V2.0
SMILES: CCCCCCCC(=O)N1CCC[C@H]1C(=O)N[C@@H](CCSC)C(=O)N[C@@H](CCCCN)C(=O)N[C@@H](Cc1ccc(O)cc1)C(=O)N[C@@H](CCCCN)C(=O)N[C@H](C(=O)N[C@H](CCSC)C(N)=O)C(C)C
B3: peptide of SEQ ID NO 29 (peptide)
peptide: RWRYRVM
HELM: PEPTIDE1{R.W.R.Y.R.V.[dM].[am]}$$$$V2.0; N-terminus assumed
SMILES: CSCC[C@@H](NC(=O)[C@@H](NC(=O)[C@H](CCCNC(=N)N)NC(=O)[C@H](Cc1ccc(O)cc1)NC(=O)[C@H](CCCNC(=N)N)NC(=O)[C@H](Cc1c[nH]c2ccccc12)NC(=O)[C@@H](N)CCCNC(=N)N)C(C)C)C(N)=O
B4: peptide of SEQ ID NO 30 (peptide)
peptide: RMRYRVM
HELM: PEPTIDE1{R.M.R.Y.R.V.[dM].[am]}$$$$V2.0; N-terminus assumed
SMILES: CSCC[C@H](NC(=O)[C@@H](N)CCCNC(=N)N)C(=O)N[C@@H](CCCNC(=N)N)C(=O)N[C@@H](Cc1ccc(O)cc1)C(=O)N[C@@H](CCCNC(=N)N)C(=O)N[C@H](C(=O)N[C@H](CCSC)C(N)=O)C(C)C
B5: peptide of SEQ ID NO 3 (peptide)
peptide: WRYKVM
HELM: PEPTIDE1{W.R.Y.K.V.[dM].[am]}$$$$V2.0; N-terminus assumed
SMILES: CSCC[C@@H](NC(=O)[C@@H](NC(=O)[C@H](CCCCN)NC(=O)[C@H](Cc1ccc(O)cc1)NC(=O)[C@H](CCCNC(=N)N)NC(=O)[C@@H](N)Cc1c[nH]c2ccccc12)C(C)C)C(N)=O
B6: peptide of SEQ ID NO 33 (peptide)
peptide: RWRYKYM
HELM: PEPTIDE1{[ac].R.W.R.Y.K.Y.[dM].[am]}$$$$V2.0
SMILES: CSCC[C@@H](NC(=O)[C@H](Cc1ccc(O)cc1)NC(=O)[C@H](CCCCN)NC(=O)[C@H](Cc1ccc(O)cc1)NC(=O)[C@H](CCCNC(=N)N)NC(=O)[C@H](Cc1c[nH]c2ccccc12)NC(=O)[C@H](CCCNC(=N)N)NC(C)=O)C(N)=O
B7: peptide of SEQ ID NO 35 (peptide)
peptide: WRYKYM
HELM: PEPTIDE1{W.R.Y.K.Y.[dM].[am]}$$$$V2.0; N-terminus assumed
SMILES: CSCC[C@@H](NC(=O)[C@H](Cc1ccc(O)cc1)NC(=O)[C@H](CCCCN)NC(=O)[C@H](Cc1ccc(O)cc1)NC(=O)[C@H](CCCNC(=N)N)NC(=O)[C@@H](N)Cc1c[nH]c2ccccc12)C(N)=O
B8: peptide of SEQ ID NO 36 (peptide)
peptide: KWKYKYM
HELM: PEPTIDE1{[ac].K.W.K.Y.K.Y.[dM].[am]}$$$$V2.0
SMILES: CSCC[C@@H](NC(=O)[C@H](Cc1ccc(O)cc1)NC(=O)[C@H](CCCCN)NC(=O)[C@H](Cc1ccc(O)cc1)NC(=O)[C@H](CCCCN)NC(=O)[C@H](Cc1c[nH]c2ccccc12)NC(=O)[C@H](CCCCN)NC(C)=O)C(N)=O
B9: peptide of SEQ ID NO 37 (peptide)
peptide: HWKYKYM
HELM: PEPTIDE1{[CCCC(=O)[*:2]].H.W.K.Y.K.Y.[dM].[am]}$$$$V2.0
SMILES: CCCC(=O)N[C@@H](Cc1c[nH]cn1)C(=O)N[C@@H](Cc1c[nH]c2ccccc12)C(=O)N[C@@H](CCCCN)C(=O)N[C@@H](Cc1ccc(O)cc1)C(=O)N[C@@H](CCCCN)C(=O)N[C@@H](Cc1ccc(O)cc1)C(=O)N[C@H](CCSC)C(N)=O
B10: peptide of SEQ ID NO 38 (peptide)
peptide: RMRYKYM
HELM: PEPTIDE1{R.M.R.Y.K.Y.[dM].[am]}$$$$V2.0; N-terminus assumed
SMILES: CSCC[C@H](NC(=O)[C@@H](N)CCCNC(=N)N)C(=O)N[C@@H](CCCNC(=N)N)C(=O)N[C@@H](Cc1ccc(O)cc1)C(=O)N[C@@H](CCCCN)C(=O)N[C@@H](Cc1ccc(O)cc1)C(=O)N[C@H](CCSC)C(N)=O
B11: peptide of SEQ ID NO 41 (peptide)
peptide: MRYKYM
HELM: PEPTIDE1{M.R.Y.K.Y.[dM].[am]}$$$$V2.0; N-terminus assumed
SMILES: CSCC[C@H](N)C(=O)N[C@@H](CCCNC(=N)N)C(=O)N[C@@H](Cc1ccc(O)cc1)C(=O)N[C@@H](CCCCN)C(=O)N[C@@H](Cc1ccc(O)cc1)C(=O)N[C@H](CCSC)C(N)=O

Experiments:
[1] = biological target: T1, FPR1; assay: Change in calcium activity by peptide, FPR1 activation effect; format: cell-based; details: calcium activity (Fura-2), graded per Table 3, read-out: EC50 for [Ca^2+] FPR1
How it was run: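 Cells plated at 3×10^5 per well the day before were loaded with Fura-2 for 1 h at 37 °C, then kept 30 min in the dark at room temperature. Peptide-evoked calcium changes were recorded on a FlexStation 3.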

[2] = system: RAW264.7 cell line; assay: Cytokine inhibition ability: LPS-induced cytokine gene expression in RAW264.7 macrophages; format: cell-based, mouse; details: grade of reduction rate of gene expression, peptide 100 nM, LPS 200 ng/mL, 6 hours
Procedure: The present inventors observed the cytokine inhibition ability of the immunomodulatory peptide candidates prepared according to one example of the present invention. Specifically, to confirm whether the peptides reduce inflammatory responses in cells, changes in cytokine gene expression in cells upon inflammation was measured.
The present inventors used a RAW264.7 cell line, that is, mouse macrophages, and used lipopolysaccharide (LPS; Sigma-Aldrich, #L2630), which is the main component of a gram-negative bacterial cell wall, as a material causing an inflammatory response. A peptide that had been dissolved in water at 100 μM was prepared.
In the present experiment, the cells were cultured in a DMEM (Lonza, #BE12-604F) containing 10% FBS and 1% penicillin-streptomycin under conditions of 37° C. and 5% CO2.
The cells were plated in a 24-well plate (Costar, #3603) at a density of 2.5×10^5 cells/well. After 24 hours, the prepared cells were treated with the peptide at 100 nM. After incubation at 37° C. for 30 minutes, to induce inflammation, 200 ng/mL of LPS was treated. After incubation at 37° C. for 6 hours, the cells in a medium-free state were treated with TRIzol™ (Invitrogen, #15596018) to lyse the cells. Through the given experimental method, RNA was obtained, cDNA was produced using a reverse transcriptase (Promega, #M1705). Afterward, a cytokine expression level was measured using SYBR Green (Enzynomics, RT530) and mouse primers of each inflammatory cytokine gene (TNFα, IL-6, and IL-1β).

[3] = biological target: T2, FPR2; assay: Change in calcium activity by peptide (Fura-2) in RBL cells overexpressing FPR2; format: cell-based; details: calcium activity (Fura-2), graded per Table 3, read-out: EC50 for [Ca^2+] FPR2
How it was run: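 Rat basophilic leukemia cells overexpressing FPR2 loaded with Fura-2 (37 °C 1 h, then RT 30 min dark); peptides (0.5 mM stocks in water or 50% DMSO) diluted in HBSS + 20 mM HEPES and added on a plate reader, intracellular Ca2+ change recorded.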

[4] = biological target: T3, FPR1; assay: cell-based or functional assay
[5] = biological target: T4, formyl peptide receptor 2 (FPR2); assay: cell-based or functional assay

Molecule | EC50 [1] [µM] | Cytokine inhibition ability IL-1β [2] | Cytokine inhibition ability IL-6 [2] | Cytokine inhibition ability TNFα [2] | EC50 [3] [µM] | EC50 for [Ca2+] [4] [µM] | EC50 for [Ca2+] [5] [µM]
CCCC(=O)N[C@@H](CCSC)C(=O)N[C@@H](CCCCN)C(=O)N[C@@H](Cc1ccc(O)cc1)C(=O)N[C@@H](CCCCN)C(=O)N[C@H](C(=O)N[C@H](CCSC)C(N)=O)C(C)C [Peptide 19] (HELM PEPTIDE1{[CCCC(=O)[*:2]].M.K.Y.K.V.[dM].[am]}$$$$V2.0) | > 10 | A (81%-100%) | B (61%-80%) | B (61%-80%) | < 0.01 |  | 
CSCC[C@H](N)C(=O)N[C@@H](CCCCN)C(=O)N[C@@H](Cc1ccc(O)cc1)C(=O)N[C@@H](CCCCN)C(=O)N[C@H](C(=O)N[C@H](CCSC)C(N)=O)C(C)C [Peptide 17] (HELM PEPTIDE1{M.K.Y.K.V.[dM].[am]}$$$$V2.0) | > 10 | B (61%-80%) | D (21%-40%) | B (61%-80%) | < 0.01 |  | 
CSCC[C@H](NC(=O)[C@@H](N)CCCNC(=N)N)C(=O)N[C@@H](CCCNC(=N)N)C(=O)N[C@@H](Cc1ccc(O)cc1)C(=O)N[C@@H](Cc1c[nH]c2ccccc12)C(=O)N[C@@H](Cc1ccc(O)cc1)C(=O)N[C@H](CCSC)C(N)=O [Peptide 81] (HELM PEPTIDE1{R.M.R.Y.W.Y.[dM].[am]}$$$$V2.0) | > 10 | A (81%-100%) | C (41%-60%) | A (81%-100%) | < 0.01 |  | 
B1 |  |  |  |  |  | > 10 | < 0.01
B2 |  |  |  |  |  | > 10 | < 0.01
B3 |  |  |  |  |  | > 10 | < 0.01
B4 |  |  |  |  |  | > 10 | < 0.01
B5 |  |  |  |  |  | > 10 | < 0.01
B6 |  |  |  |  |  | > 10 | < 0.01
B7 |  |  |  |  |  | > 10 | < 0.01
B8 |  |  |  |  |  | > 10 | < 0.01
B9 |  |  |  |  |  | > 10 | < 0.01
B10 |  |  |  |  |  | > 10 | < 0.01
B11 |  |  |  |  |  | > 10 | < 0.01
